Test results as given in patent publication US20250281556A1, “PRODUCTION OF RNA POLYNUCLEOTIDES ENCODING PICORNAVIRUS” (priority 2022, published 2025).

Legend:
[1] = tested on: ~260 nt segment of the 5′-end of the viral genome sequence (virus start); experiment: Ribozyme cleavage efficiency, test construct with longer ~260 nt virus start; format: biochemical, CVA21; conditions: gel electrophoresis
Description: (§1) Experiments were performed to optimize the ribozyme sequence at the 5′ junctional cleavage sequence region of the in vitro transcription template for CVA21 viral genome based on the test construct design according to FIG. 10B. Initially, a short, about 60 nt segment(S) of the 5′-end of the viral genome (“virus start”) was used to identify ribozymes that yielded high cleavage efficiency. […] Specifically, for an initial candidate ribozyme that yielded >90% cleavage efficiency in the test construct with short ˜60 nt virus start, it yielded only about 10-35% cleavage efficiency upon incorporation of the expression construct for the full-length viral genome. […] Thus, the test construct was redesigned to include a longer, about 260 nt segment (L) of the 5′-end of the viral genome sequence. […] Therefore, the test construct “L” with longer virus start better recapitulates the cleavage efficiency of the candidate ribozyme when incorporated into the full-length viral genome.
Further optimization was performed in the DNA template encoding ENT27 ribozyme, including: • Replacing the P2 motif “TTGGTT” of ENT27-WT with “TTTGTT” (ENT27-V1) or “TTTATT” (ENT27-V2, ENT27-V3, ENT27-V4) to complement the 5′ end of the viral start “UUAAA” after ribozyme cleavage. • Inserting additional nucleotides “GAAA” (ENT27-V3) or “ACGAGAAATCGT” (ENT27-V4) into the P3 stem insert of the ENT27 ribozyme. These optimizations are illustrated in FIG. 11A and FIG. 11B.
The cleavage efficiencies of these optimized ENT27 ribyzomes were analyzed using the test constructs with longer ˜260 nt virus start. The leader sequence used in these constructs include L1 (SEQ ID NO: 135) and L2 (SEQ ID NO: 136).

[2] = tested on: full-length CVA21 viral genome RNA; experiment: Ribozyme cleavage efficiency in the full-length CVA21 viral genome expression construct; format: biochemical; conditions: L1 leader sequence, RT-dPCR and RNA digest methods, vs control vector CVA21v1
Description: as §1
ENV27-V2 ribozyme and L1 leader sequence was then incorporated into the CVA21 viral genome expression construct and tested for cleavage efficiency using both RT-dPCR and RNA digest methods.

Row | Molecule | cleavage efficiency [1] | cleavage efficiency [2] [%]
1 | ENT27-WT: ENV27 ribozyme, corresponding DNA sequence SEQ ID NO: 130, P2 motif TTGGTT (nucleic acid, further chemistry not given here) DNA: ACTCGTTTGAGCGAGTATAAACAGTTGGTTAGGCTCAAAGCGGAGAGCAGATCTGCTCTCGTCCAA | promising candidate | 
2 | ENV27-V2: ENV27 ribozyme variant, DNA SEQ ID NO: 132, P2 motif TTTATT; tested with L1 leader sequence (nucleic acid, expressed or natural sequence) DNA: ACTCGTTTGAGCGAGTATAAACAGTTTATTAGGCTCAAAGCGGAGAGCAGATCTGCTCTCG | much better cleavage efficiency | > 90
3 | ENV27-V3: ENV27 ribozyme variant, DNA SEQ ID NO: 133, TTTATT and GAAA inserted into P3 stem insert (nucleic acid, expressed or natural sequence) DNA: ACTCGTTTGAGCGAGTATAAACAGTTTATTAGGCTCAAAGCGGAGAGCAGAGAAATCTGCTCTCG | improved the cleavage efficiency | 
4 | ENV27-V4: ENV27 ribozyme variant, DNA SEQ ID NO: 134, TTTATT and ACGAGAAATCGT inserted into P3 stem insert (nucleic acid, expressed or natural sequence) DNA: ACTCGTTTGAGCGAGTATAAACAGTTTATTAGGCTCAAAGCGGAGAGCAGAACGAGAAATCGTTCTGCTCTCG | improved the cleavage efficiency | 
